Data: US10704030B2, “P450-BM3 variants with improved activity” (Codexis, Inc., priority 2015, dated 2020)

Assays:
Assay type in all cases: biochemical
[1] = Validation of generalist properties: oxidation of loratadine by lyophilized P450-BM3 variant, UPLC-MS; conditions: [Loratadine] = 1 mM; for TON: TON = [substrate]*% conversion/[P450]
In short: (§1)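 Lyophilized lysate of E. coli-expressed P450-BM3 variant (stock standardized to 12 μM heme) was incubated 24 h at 30 °C with 1 or 2 mM substrate, 1.0 mM NADP+, 25 mM glucose, 0.5 mg/mL glucose dehydrogenase and 5% DMSO in 100 mM potassium phosphate. Acetonitrile-quenched samples were analyzed by UPLC-MS (positive ESI).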

[2] = Validation of generalist properties: oxidation of gefitinib by lyophilized P450-BM3 variant, UPLC-MS; conditions: [Gefitinib] = 1 mM; for TON: TON = [substrate]*% conversion/[P450]
In short: as §1

[3] = Validation of generalist properties: oxidation of imatinib by lyophilized P450-BM3 variant, UPLC-MS; conditions: [Imatinib] = 1 mM; for TON: TON = [substrate]*% conversion/[P450]
In short: as §1

[4] = Validation of generalist properties over the four substrates screened
Description: For the production of lyophilized protein powders, LB agar plates supplemented with chloramphenicol (30 μg/mL) were streaked with E. coli containing a desired B. megaterium P450-BM3 variant in an IPTG-inducible vector. The plates were grown at 37° C. for 16 hrs before single clones were selected to inoculate a 15 mL Falcon™ tube (Fisher) containing TB media (3 mL) supplemented with chloramphenicol (30 μg/mL). The tube was shaken at 200 rpm, 30° C., and 85% humidity for 20-24 h to grow the cultures to saturation. Then, 2.5 mL of the overnight culture was used to inoculate sterile 1 L flasks containing TB medium (250 mL) supplemented with chloramphenicol (30 μg/mL), trace element solution (as described above), and 0.05 g/L ammonium iron (III) citrate. After being shaken at 250 rpm, 30° C., and 85% humidity to an OD600 of 0.8-1.2, P450 expression was induced by addition of IPTG (500 uM) and the heme precursor 5-aminolevulinic acid (5-ALA) to a final concentration of 500 uM. The cultures were grown for additional 20-24 hours and centrifuged in pre-weighed 250 mL centrifuge bottles for 20 minutes at 4000 rpm, 4° C. The supernatants were discarded, and the centrifuge bottles containing cell pellets were weighed. The pellets were resuspended in 50 mM potassium phosphate buffer with 2 mM DTT, pH 8.0 (5 mL of buffer per gram of cell pellet). The cells were lysed using a microfluidizer homogenizer, and the suspensions of cells and lysate were collected in sterile 50 mL centrifuge tubes. The samples were centrifuged for 30 minutes at 10,000 rpm, 4° C. The clarified lysate was collected into a plastic petri plate and frozen at −80° C. prior to lyophilization. The enzyme-containing lysates were lyophilized using standard methods known in the art.
Enzyme stocks (˜12 μM) were prepared by dissolving ˜20 mg of each enzyme in 100 mM potassium phosphate buffer, pH 8.0 (1 mL). The concentration of each enzyme stock solution was determined by the UV-visible absorption spectroscopy (after centrifugation to remove particulates) and diluted to standardize at 12 μM heme protein. Substrate solutions were prepared by dissolving each substrate in DMSO to reach a final concentration of 20 mM or 40 mM. Reaction mix (235 μL) followed by enzyme solution (50 μL) was added to the plates. The substrate stock solution was added to the enzyme solutions (15 μL at the two different concentrations). Each reaction contained 100 mM potassium phosphate, 1.0 mM NADP+, 25 mM glucose, 0.5 mg/mL glucose dehydrogenase, 5% DMSO and substrate at 1 or 2 mM. Loratadine, imatinib, and gefitinib (See, FIG. 1) were selected as substrates in addition to diclofenac to validate improved BM3 variants. The reactions were shaken at 450 rpm at 30° C. over 24 hours. All reactions were diluted with acetonitrile to a final concentration of 0.5 mM substrate. The plates were then centrifuged at 3,000 g for 1 hour at 20° C. The supernatant was diluted 1:1 with acetonitrile, filtered using a 0.4 micron filter, and analyzed by UPLC-MS.
For UPLC-MS analysis, the quenched and filtered reactions were transferred to 96-well HTP plates for analysis by UPLC on a Waters Acquity H-class system equipped with an autosampler. 1 uL of quenched sample was injected onto an Acquity UPLC HSS T3 column, 100 Å, (1.8 um; 2.1×100 mm). […] Column eluent was monitored by PDA (200-600 nm) prior to MS analysis in positive ESI mode (desolvation temperature 350° C., 3.25 kV spray voltage, cone voltage 25V). […]

[5] = Validation of generalist properties: oxidation of diclofenac by lyophilized P450-BM3 variant, UPLC-MS; conditions: [Diclofenac] = 1 mM; for TON: TON = [substrate]*% conversion/[P450]
In short: as §1

[6] = fold improvement over parent MCYP-1.2-A12

Row | Molecule | % Conv. [1] | TON [1] | FIOPC (A12) [1, 6] | % Conv. [2] | TON [2] | FIOPC (A12) [2, 6] | % Conv. [3] | TON [3] | FIOPC (A12) [3, 6] | performance (% conversion at 1 mM substrate loading) over the substrates screened, in words [4] | % Conv. [5] | TON [5] | FIOPC (A12) [5, 6]
1 | Variant 16: P450-BM3 variant of SEQ ID NO: 6: K32R; C48S; Y52F; G115R; L216Y; D232H; E349K; M491A; T577A; E619D; A627S; D722S (protein, P450_BM3, C48S; Y52F; G115R; L216Y; D232H; E349K; M491A; T577A; E619D; A627S; D722S) MTIKEMPQPKTFGELKNLPLLNTDKPVQALMRIADELGEIFKFEAPGSVTRFLSSQRLIKEACDESRFDKNLSQALKFARDFLGDGLFTSWTHEINWKKAHNILLPSFSQQAMKRYHAMMVDIAVQLVQKWERLNADEHIEVSEDMTRLTLDTIGLCGFNYRFNSFYRDQPHPFIISMVRALDEVMNKLQRANPDDPAYDENKRQCQEDIKVMNDYVDKIIADRKARGEQSHDLLTQMLNGKDPETGEPLDDGNISYQIITFLIAGHETTSGLLSFALYFLVKNPHVLQKVAEEAARVLVDPVPSYKQVKQLKYVGMVLNEALRLWPTAPAFSLYAKEDTVLGGEYPLKKGDEVMVLIPQLHRDKTIWGDDVEEFRPERFENPSAIPQHAFKPFGNGQRACIGQQFALHEATLVLGMMLKHFDFEDHTNYELDIKETLTLKPEGFVVKAKSKKIPLGGIPSPSTEQSAKKVRKKAENAHNTPLLVLYGSNAGTAEGTARDLADIAMSKGFAPQVATLDSHAGNLPREGAVLIVTASYNGHPPDNAKQFVDWLDQASADEVKGVRYSVFGCGDKNWAATYQKVPAFIDETLAAKGAENIADRGEADASDDFEGTYEEWRDHMWSDVASYFNLDIENSEDNKSTLSLQFVDSAADMPLAKMHGAFSTNVVASKELQQPGSARSTRHLEIELPKEASYQEGDHLGVIPRNYEGIVNRVTARFGLSASQQIRLEAEEEKLAHLPLAKTVSVEELLQYVELQDPVTRTQLRAMAAKTVCPPHKVELEALLEKQAYKEQVLAKRLTMLELLEKYPACEMKFSEFIALLPSIRPRYYSISSSPRVDEKQASITVSVVSGEAWSGYGEYKGIASNYLAELQEGDTITCFISTPQSEFTLPKDPETPLIMVGPGTGVAPFRGFVQARKQLKEQGQSLGEAHLYFGCRSPHEDYLYQEELENAQSEGIITLHTAFSRMPNQPKTYVQHVMEQDGKKLIELLDQGAHFYICGDGSQMAPAVEATLMKSYADVHQVSEADARLWLQQLEEKGRYAKDVWAG | + (0-5.00) | ‡ (0-1000) | * (0.0-3.0) | ++++ (15.01-20.00) | ‡‡‡‡ (10000-50000) | **** (10.01-15.00) | ++++ (15.01-20.00) | ‡‡‡‡ (10000-50000) | **** (10.01-15.00) | improved and significant activity for three out of four substrates screened | ++++ (15.01-20.00) | ‡‡‡‡ (10000-50000) | * (0.0-3.0)
2 | SEQ ID NO: 6: P450-BM3 parental backbone from the commercially available MCYP panel (MCYP-0343; Codexis) (protein, P450_BM3) MTIKEMPQPKTFGELKNLPLLNTDKPVQALMKIADELGEIFKFEAPGCVTRYLSSQRLIKEACDESRFDKNLSQALKFARDFLGDGLFTSWTHEINWKKAHNILLPSFSQQAMKGYHAMMVDIAVQLVQKWERLNADEHIEVSEDMTRLTLDTIGLCGFNYRFNSFYRDQPHPFIISMVRALDEVMNKLQRANPDDPAYDENKRQCQEDIKVMNDLVDKIIADRKARGEQSDDLLTQMLNGKDPETGEPLDDGNISYQIITFLIAGHETTSGLLSFALYFLVKNPHVLQKVAEEAARVLVDPVPSYKQVKQLKYVGMVLNEALRLWPTAPAFSLYAKEDTVLGGEYPLEKGDEVMVLIPQLHRDKTIWGDDVEEFRPERFENPSAIPQHAFKPFGNGQRACIGQQFALHEATLVLGMMLKHFDFEDHTNYELDIKETLTLKPEGFVVKAKSKKIPLGGIPSPSTEQSAKKVRKKAENAHNTPLLVLYGSNMGTAEGTARDLADIAMSKGFAPQVATLDSHAGNLPREGAVLIVTASYNGHPPDNAKQFVDWLDQASADEVKGVRYSVFGCGDKNWATTYQKVPAFIDETLAAKGAENIADRGEADASDDFEGTYEEWREHMWSDVAAYFNLDIENSEDNKSTLSLQFVDSAADMPLAKMHGAFSTNVVASKELQQPGSARSTRHLEIELPKEASYQEGDHLGVIPRNYEGIVNRVTARFGLDASQQIRLEAEEEKLAHLPLAKTVSVEELLQYVELQDPVTRTQLRAMAAKTVCPPHKVELEALLEKQAYKEQVLAKRLTMLELLEKYPACEMKFSEFIALLPSIRPRYYSISSSPRVDEKQASITVSVVSGEAWSGYGEYKGIASNYLAELQEGDTITCFISTPQSEFTLPKDPETPLIMVGPGTGVAPFRGFVQARKQLKEQGQSLGEAHLYFGCRSPHEDYLYQEELENAQSEGIITLHTAFSRMPNQPKTYVQHVMEQDGKKLIELLDQGAHFYICGDGSQMAPAVEATLMKSYADVHQVSEADARLWLQQLEEKGRYAKDVWAG | + (0-5.00) | ‡ (0-1000) | – | ++ (5.01-10.00) | ‡‡ (1001-5000) | – | + (0-5.00) | ‡‡ (1001-5000) | – | low activity for each substrate screened | ++ (5.01-10.00) | ‡‡ (1001-5000) | –
